Paper PMC11870076, “Multiple carbamylation events are required for differential modulation of Cx26 hemichannels and gap junctions by CO2” (The Journal of Physiology, 2025)

Target: the molecule itself
Experiment: cryo-EM structure; GgCx26 in 0.03% DDM, 90 mmHg PCO2 aCSF buffer gassed with 15% CO2 to pH ~7.4, 3.4 mg/ml; reconstructions with D6 and C6 symmetry

B1: chicken connexin 26 (GgCx26) gap junction channel (natural protein)
chain: not shown
notes: DNA encoding GgCx26 lacking a stop codon was amplified from a GgCx26-mCherry construct, forward primer at the start ATG; in the model residues before Val9, 106-124 and after Leu215 are not built; Dodecameric gap junction channel (two docked hexamers); thrombin-cleavable C-terminal His6 tag removed with thrombin before SEC; also called chicken Cx26; Chicken (Gallus gallus) Cx26; source: Sf9 cells …
  stoichiometry N: 12 subunits
